# Measured values: PMC4743925, “Targeting an Essential GTPase Obg for the Development of Broad-Spectrum Antibiotics” (PLoS ONE, 2016)
# B1: ObgGC (Neisseria gonorrhoeae FA 1090) (protein)
# chain: MKFIDEAKIEVAAGKGGNGATSFRREKFVPRGGPDGGDGGKGGSVWAEADENTNTLVEYRFVKRYQAKNGEKGHGSDRYGAGADDIVLKMPVGTLIRDLDTDEIVADLTYHGQRVCLAKGGKGGLGNIHFKSSVNRAPKQSTPGEEGETRSLQLELKVLADVGLLGMPNAGKSTLITAVSAARPKIANYPFTTLHPNLGVVRIDENHSFVMADIPGLIEGAAEGAGLGHRFLKHLSRTGLLLHVVDLAPFDETVNPAEEALAIINELRKYDEELYGKPRWLVLNKLDMLDEEEARARTAAFLEAVGWDYPEPDDRFQFDMETPRLFQISALTHQGTQELVHQINQYLAEKKRIEAEKAEAEKAAANVEIIEQQPKTDTGVFKPE
# notes: full-length with C-terminal 6xHis tag, expressed in E. coli BL21(DE3), IMAC and size exclusion; tag not reported cut
# Substrate: Nc1nc2c(ncn2[C@@H]2O[C@H](COP(=O)(O)OP(=O)(O)OP(=O)(O)O)[C@@H](O)[C@H]2O)c(=O)[nH]1
# Test: BIOMOL Green (malachite green) phosphate release
# Format: biochemical, Neisseria gonorrhoeae
# Conditions: 5 μM protein, 10-1000 μM GTP, 6 h, 37 °C, pH 8.0, 10 mM MgCl2, 50 mM KCl
protein,measurement,value
B1,Km,78.76 µM
